Measured values from patent US20050100551A1.

Tests used:
Herceptin [1] = assay: inhibition ELISA: herceptin preincubated with KLH alone, binding to SKBR3 membranes (Her-2/neu)
Herceptin [2] = assay: inhibition ELISA: herceptin preincubated with wild-type phage, binding to SKBR3 membranes (Her-2/neu)

| Substance | Percent inhibition in comparison to uninhibited herceptin control (Herceptin [1]) [%] | Percent inhibition in comparison to uninhibited herceptin control (Herceptin [2]) [%] |
| --- | --- | --- |
| KLH (from UniProt Q10583 17-3414) | 0 | – |
| Wild-type phage | – | 3 |
